The test system of data set [1] is db/db mice. Put plainly: Oral glucose tolerance test (OGTT) in db/db mice after 21 days. Type of data set: in vivo. To be noted: after 21 days of treatment, 2 g/kg oral glucose, vs vehicle treated obese control. How it is done: (§1) Female db/db mice (BKS.Cg-m+/+Leprdb/J, age of 6 weeks) were treated with vehicle (PBS), 0.05 mg·kg^−1·day^−1 AVE0010, 0.75 mg·kg^−1·day^−1 recombinant human FGF-21 (SEQ ID NO: 2) or a combined dose of FGF-21 (SEQ ID NO: 2) and AVE0010 (0.75+0.05 mg·kg^−1·day^−1) subcutaneously once daily. Mice were fed ad libitum. Before the first treatment, after one week and 4 weeks blood glucose and HbA1c were measured under fed conditions. After 21 days of treatment an oral glucose tolerance test (OGTT) was initiated. Fasted mice were orally challenged with 2 g·kg^−1 glucose solution and blood glucose was measured at indicated time points.

Data set [2] deals with diabetic rhesus monkeys. To be noted: 6 weeks; cited from earlier work.
The subject of data set [3] is ob/ob mice, db/db mice and obese ZDF rats. To be noted: cited from earlier work.
In data set [4] the test system is db/db mice. Put plainly: Fed blood glucose in db/db mice (age of 6 weeks). Type of data set: in vivo. As to conditions: fed conditions, up to 4 weeks, AVE0010 0.05, FGF-21 0.75 mg/kg/day s.c. or combined. How it is done:
as §1

Data set [5] deals with mouse 3T3-L1 adipocytes. As to conditions: in the presence and absence of insulin; cited from earlier work.
[6] abbreviates: ob/ob and db/db mice and 8 week old ZDF rats, dose dependent (WO03/011213).
Where [7] appears, read: ob/ob, db/db mice and obese ZDF rats (Kharitonenkov et al. 2005).

Read-outs that look alike come from different tables or passages of the source.

The text below walks through data of patent publication US20140142023A1, “Pharmaceutical Composition for Treating A Metabolic Syndrome” (SANOFI, priority 2011, published 2014).

B1: FGF-21: recombinant human FGF-21 (SEQ ID NO: 2): deletion of amino acids 1-28 of human FGF-21 and additional N-terminal glycine (protein)
chain: GHPIPDSSPLLQFGGQVRQRYLYTDDAQQTEAHLEIREDGTVGGAADQSPESLLQLKALKPGVIQILGVKTSRFLCQRPDGALYGSLHFDPEACSFRELLLEDGYNVYQSEAHGLPLHLPGNKSPHRDPAPRGPARFLPLPGLPPAPPEPPGILAPQPPDVGSSDPLSMVGPSQGRSPSYAS
modifications: G linked to fragment of human FGF21 from H29 to S209
Take B1: in data set [1], the “glucose tolerance (OGTT)” value was “small improvement”. In data set [2], the HDL-cholesterol result was “increased”, the LDL-cholesterol result is “significantly lowered”, the body weight result is reported as “slightly but significantly decreased” and the fasting plasma glucose entry was “reduced”. In data set [2], the fructosamine result is recorded as “reduced”, the glucagone levels result is reported as “reduced”, the hypoglycemia entry was “not observed” and the insulin result is given as “reduced”. Moreover, the triglyceride entry in data set [2] is reported as “reduced”. Moreover, the “mitogenicity, hypoglycemia, or weight gain” value in data set [3] (any dose tested, diabetic or healthy animals) was “did not induce”. Also, the “food intake or body weight/composition” value in data set [3] (diabetic or lean mice and rats, 2 weeks of administration) is listed as “did not affect”. Moreover, in data set [3] (setting [6]), the “fed and fasting blood glucose” value is recorded as “decrease”; the glucagon levels entry is “decrease”; the triglycerides entry was “decrease”. In data set [3] (setting [7]), the blood glucose result is reported as “significantly lowered”, the fasting insulin levels result is on record as “decreased”, the “glucose clearance during an oral glucose tolerance test” value is given as “improved” and the triglycerides entry was “significantly lowered”. Also, the blood glucose result in data set [4] was “inhibition of blood glucose increase”. Also, the glucose uptake result in data set [5] is “stimulate”.
